In patent US20240350646A1, “METHODS AND COMPOSITIONS FOR DELIVERY TO AND ACROSS THE BLOOD BRAIN BARRIER” (NUtech Ventures, priority 2021, published 2024):

Key:
[1] = NP characterization: TEM particle diameter, DLS hydrodynamic size, zeta potential; format: physicochemical
Description: A high voltage transmission electron microscope (TEM) (Tecnai Osiris™, 200 kV) was used to measure particle diameters of PEG diacid coated Gd NPs. A copper grid (PELCO mesh size 400, TED PELLA, INC.) covered with an amorphous carbon membrane was placed onto a filter paper. Then, a sample solution diluted in triply distilled water was dropped over the copper grid by using a micropipette (Eppendorf, 2-20 μL). Dynamic light scattering (DLS) studies of the NPs were conducted using a Malvern Instruments Zetasizer Nano series instrument. Solutions of the NPs were prepared in DPBS (pH 7.4) at a concentration of 0.05 mM. The resulting solutions were filtered with 0.22 μm filters before the measurement. The NP concentration was determined by using an inductively coupled plasma mass spectrometer (ICPMS) (Agilent 7500 cx). To determine this, ˜0.5 mL of the NP solution was taken out and treated with HNO3 to dissolve nanoparticles in the solution completely. A Fourier transform-infrared (FT-IR) (Nicolet AVATAR 380 FT-IR) was used to verify the surface coating. To record the FT-IR absorption spectrum (400-4000 cm^−1), the powder sample was prepared. Peptide attachment to NPs was confirmed using BCA assay. Attaching efficiency was confirmed using the equation, Conjugation Efficiency of peptide (%)=Amount of peptide in NPs/Initial amount of peptide×100.

[2] = K^trans DCE-MRI: brain region accumulation and retention of NPs; format: in vivo, C57BL/6J mice; settings: for K^trans, corpus callosum (CC): 100 μL of 0.5 mM NP via tail vein
Description: Both male and female young (6-8 weeks) C57BL/6J mice (Jackson Laboratory, Bar Harbor, ME) and middle aged (12 months) C57BL/6J and CX3CR1-GFP (Jackson Laboratory, Bar Harbor, ME) from a C57BL/6J background mice were used. Mice were housed in a 12 h/12 h day/night cycle with ad libitum access to standard mouse chow and water. All animal work was approved by and performed under the guidance of the University of Nebraska-Lincoln IACUC.
In vivo NP assessment consisted of dynamic contrast-enhanced (DCE)-MRI using a 9.4T MRI system (Varian) to compare targeting agent effect on the uptake as previously described (Miller et al., 2019, Scientific Reports, 9:16099). Briefly, mice were induced with about 2% isoflurane gas and maintained at a concentration sufficient to achieve 50 to 80 breaths per minute. Baseline T1 maps were generated using a gradient-echo sequence and the variable flip angle method with two angles, 10° and 30° (Deoni et al., 2003, Magn. Reson. Med., 49:515-26). Mice were injected with 100 μL of a 0.5 mM NP solution via tail vein catheter followed by 100 μL PBS to flush all remaining NP solution. A flip angle of 30° was used for all post-contrast scans, which occurred for 1 h following injection. TR was between 54 and 84 ms, TE between 2.73 and 4.24 ms, matrix size between 128×128 and 256×256, FOV between 20×20×10 mm^3 and 25×25×10 mm^3 depending on the experiment. NEX varied with matrix size to maintain temporal resolution, with 128×128, NEX=5 for all scans, with 256×256, NEX=4 for baseline and 1 for post-contrast scans.
Following serial image acquisition, resulting in about 100 post-contrast scans per animal, R1, concentration, and K^trans mapping were performed using custom MATLAB script. R1 mapping was performed using the variable flip angle method based on the following equation (Deoni et al., 2005, Magn. Reson. Med., 53:237-41: […]
where SSPGR is signal intensity, α is FA, E1 is […], and M0 is a proportionality factor related to longitudinal magnetization. E1 describes the linear relationship between the two signal intensity ratios, taking the slope, m, of that line enables calculation of T1 as:
Concentration maps were then generated by comparison of baseline R1 maps with post-contrast R1 maps using the following equation: […]
where C(t) is the concentration at time t, R1(t) is the post contrast R1-value at t, RT(t0) is baseline R1, and r1 is relaxivity of the contrast agent. K^trans, the contrast extravasation rate constant, mapping was then performed using a reference region (RR) model derived from the extended Tofts' model (Tofts et al., 1999, J. Magn. Reson. Imaging, 10:223-232):
where CTOI and CRR are concentrations in the tissue of interest (TOI) and the RR, respectively, K^trans,TOI and K^trans, RR are K^trans in the TOI and RR, respectively, and ve,TOI and ve,RR are extravascular-extracellular volume fractions for the TOI and RR, respectively. Muscle tissue from within the FOV was used in all animals as the RR. MATLAB was used to execute a least squares curve fitting routine to calculate K^trans for each voxel in the brain.

[3] = biological target: T1, mouse claudin-1 (Mus musculus, UniProt O88551); experiment: In vitro immunofluorescence of NP binding in bEnd.3 cells (control and ethanol induced); format: cell-based; settings: 4 hrs
T1 construct: These cells were subjected to ethanol (50 mM) treatment to induce claudin-1 expression; endogenous in cells; host or cells: bEnd.3 mouse brain microvascular endothelial cells
T1 sequence (O88551 1-211): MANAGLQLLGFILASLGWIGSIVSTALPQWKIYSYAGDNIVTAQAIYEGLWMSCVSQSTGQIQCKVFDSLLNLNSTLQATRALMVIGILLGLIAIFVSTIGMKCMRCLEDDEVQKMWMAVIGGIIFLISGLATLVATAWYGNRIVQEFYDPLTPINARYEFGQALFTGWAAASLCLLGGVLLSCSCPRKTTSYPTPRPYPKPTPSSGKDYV
Description: bEnd.3 cells were cultured according to the ATCC culture conditions in DMEM. These cells were subjected to ethanol (50 mM) treatment to induce claudin-1 expression and incubated with C1C2-NP for 4 hrs. For determining attachment of the C1C2-NP to human claudin-1, human claudin-1 encoded PCMV script plasmid was overexpressed in bEnd.3 cells and then incubated with C1C2-NP for 4 hrs.

[4] = old (1-year-old) mice, listed as C1C2-NPs

Binding to bEnd.3 cells ([3]; claudin-1 induced by ethanol (50 mM)): much higher binding
Binding to bEnd.3 cells ([3]; control cells, low claudin-1 expression): no binding
Substance: C1C2-NP: PEG diacid coated ultrasmall Gd NP conjugated with C1C2 peptide SSVSQSTGQIQSKVDSLLNLNSTQATR (SEQ ID NO: 6); claudin-1 targeted (Ac-SSVSQSTGQIQSKVDSLLNLNSTQATR-NH2; also: conjugated to PEG diacid coated ultrasmall Gd nanoparticle)
Zeta Potential, mV (with NPs) [1]: 7.81 ± 0.38 mV
Hydrodynamic size (nm) ([1]; DLS, DPBS pH 7.4): 14.5 ± 0.13 nm
K^trans, cortex (CTX) ([2]; old (1-year-old) mice): 0.0148 min⁻¹
K^trans, hippocampus (HC) ([2]; old (1-year-old) mice): 0.0040 min⁻¹
K^trans, hypothalamus (HT) ([2]; old (1-year-old) mice): 0.0102 min⁻¹
K^trans, muscle ([2]; old (1-year-old) mice): 0.0057 min⁻¹
K^trans, corpus callosum (CC) ([2]; old (1-year-old) mice): 0.0058 min⁻¹
K^trans, corpus callosum (CC) [2, 4]: 0.0058 min⁻¹
K^trans, cortex (CTX) [2, 4]: 0.0145 min⁻¹
K^trans, hippocampus (HC) [2, 4]: 0.0040 min⁻¹
K^trans, hypothalamus (HT) [2, 4]: 0.0134 min⁻¹
K^trans, cortex (CTX) ([2]; young mice): 0.0022 min⁻¹
K^trans, hippocampus (HC) ([2]; young mice): 0.0019 min⁻¹
K^trans, hypothalamus (HT) ([2]; young mice): 0.0026 min⁻¹
K^trans, muscle ([2]; young mice): 0.0028 min⁻¹
K^trans, corpus callosum (CC) ([2]; young mice): 0.0019 min⁻¹
